Results taken from US20110123554A1 (BIOTEST, published 2011).
“And” between values parts separate entries of the source, which are not always exact repeats. Identical values can stand only once.

T1: CD138 on the cell surface (human, UniProt P18827 23-310)
T1 sequence (looked up): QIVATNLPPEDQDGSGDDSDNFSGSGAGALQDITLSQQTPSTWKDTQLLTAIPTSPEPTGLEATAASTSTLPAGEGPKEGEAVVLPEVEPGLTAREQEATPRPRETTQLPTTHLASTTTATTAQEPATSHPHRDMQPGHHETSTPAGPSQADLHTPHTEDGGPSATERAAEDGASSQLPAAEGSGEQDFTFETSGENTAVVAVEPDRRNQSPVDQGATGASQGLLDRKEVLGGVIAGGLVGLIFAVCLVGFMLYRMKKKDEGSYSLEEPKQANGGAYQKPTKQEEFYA

T2: Soluble CD138 antigen from U-266 cell culture supernatant, biotinylated (human, UniProt P18827 23-245, limits assumed, biotinylated on primary amino groups with EZ-Link Sulfo-NHS-LC-Biotin)
T2 construct: Captured on a streptavidin SENSOR CHIP SA for the BIACORE assay; Soluble (shed) form; also called bCD138; biotinylated CD138
T2 sequence (looked up): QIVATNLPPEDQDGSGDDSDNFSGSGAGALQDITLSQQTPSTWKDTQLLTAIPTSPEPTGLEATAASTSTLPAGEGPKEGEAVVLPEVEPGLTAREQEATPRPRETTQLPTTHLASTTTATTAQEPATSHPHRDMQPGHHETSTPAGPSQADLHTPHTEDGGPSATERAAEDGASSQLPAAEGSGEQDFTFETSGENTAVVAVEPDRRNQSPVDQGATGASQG

B1: nBT062-SPDB-DM4 (antibody, human IgG4, kappa, V domains shown)
VH: QVQLQQSGSELMMPGASVKISCKATGYTFSNYWIEWVKQRPGHGLEWIGEILPGTGRTIYNEKFKGKATFTADISSNTVQMQLSSLTSEDSAVYYCARRDYYGNFYYAMDYWGQGTSVTVSS
VL: DIQMTQSTSSLSASLGDRVTISCSASQGINNYLNWYQQKPDGTVELLIYYTSTLQSGVPSRFSGSGSGTDYSLTISNLEPEDIGTYYCQQYSKLPRTFGGGTKLEIKR
modifications: maytansinoid DM4 linked by disulfide bond through SPDB linker; residues carrying the drug not stated
B2: nBT062-SPP-DM1 (antibody, human IgG4, kappa, V domains shown)
VH: B1 VH
VL: B1 VL
modifications: maytansinoid DM1 linked through SPP linker; residues carrying the drug not stated
notes: an average of 3.5 DM1 per antibody is stated for nBT062-DM1 conjugates
B3: nBT062-SMCC-DM1 (antibody, human IgG4, kappa, V domains shown)
VH: B1 VH
VL: B1 VL
modifications: maytansinoid DM1 linked through non-cleavable SMCC linker; residues carrying the drug not stated
B4: nBT062 (antibody, human IgG4, kappa, V domains shown)
VH: B1 VH
VL: B1 VL
notes: also called cB-B4; chimeric B-B4
B5: B-B4-SPP-DM1 (antibody, V domains shown)
VH: B1 VH
VL: DIQMTQSTSSLSASLGDRVTISCSASQGINNYLNWYQQKPDGTVELLIYYTSTLQSGVPSRFSGSGSGTDYSLTISNLEPEDIGTYYCQQYSKLPRTFGGGTKLEIK
modifications: maytansinoid DM1 linked through SPP linker; residues carrying the drug not stated
notes: Variable domains as for B-B4 (see its note)

Experiments:
[1] = biological target: T1, CD138 on the cell surface; test: cell-based or functional assay
[2] = biological target: T1, CD138 on the cell surface; test: FACS on CD138+ OPM-2 cells, fluorescence-labelled secondary antibody, mean fluorescence against concentration
Description: The cells were washed and CD138-bound antibody or conjugates were detected using a fluorescence-labeled secondary antibody in FACS analysis. The mean fluorescence measured in these experiments was plotted against the antibody concentration.

[3] = biological target: T2, Soluble CD138 antigen from U-266 cell …; test: BIACORE C, biotinylated soluble CD138 on SA chip, conjugate as analyte; mean of three experiments
[4] = biological target: T2, Soluble CD138 antigen from U-266 cell …; test: BIACORE C, biotinylated soluble CD138 on SA chip, conjugate as analyte; single experiment

Row | Binder | EC50 (read off the curve) [2] | other results
1 | B1 | – | Sensitivity IC50 (nM), cell line NCI-H929 (MM) [1]: 0.38 nM
2 | B2 | ~1 nM | –
3 | B3 | ~1 nM | –
4 | B4 | ~1 nM | –
5 | B5 | – | Kd [3]: 2.6 nM; Kd [4]: 2.6 nM and 2.7 nM
